The results in this text go back to PMC7731665 (Frontiers in Immunology, 2020).

The target in this assay is T1, vimentin in lupus nephritis kidney tissue (Homo sapiens, UniProt P08670).
T1 construct: endogenous vimentin of human lupus nephritis biopsies; vimentin-rich zones marked with the anti-vimentin antibody V9; also called Vim^hi zones of inflamed lupus kidney; source: endogenous, paraffin embedded human lupus kidney biopsies
The assay is described as follows: immunostaining of cells or tissue; paraffin embedded lupus nephritis kidney biopsies, FLAG-tagged human IgG1 mAbs detected with rat anti-FLAG and Alexa Fluor 488 anti-rat IgG, co-stained with V9 and Hoechst; confocal microscopy, per field of view. The conditions noted are these: one partner purified.

T1 sequence (P08670 whole entry): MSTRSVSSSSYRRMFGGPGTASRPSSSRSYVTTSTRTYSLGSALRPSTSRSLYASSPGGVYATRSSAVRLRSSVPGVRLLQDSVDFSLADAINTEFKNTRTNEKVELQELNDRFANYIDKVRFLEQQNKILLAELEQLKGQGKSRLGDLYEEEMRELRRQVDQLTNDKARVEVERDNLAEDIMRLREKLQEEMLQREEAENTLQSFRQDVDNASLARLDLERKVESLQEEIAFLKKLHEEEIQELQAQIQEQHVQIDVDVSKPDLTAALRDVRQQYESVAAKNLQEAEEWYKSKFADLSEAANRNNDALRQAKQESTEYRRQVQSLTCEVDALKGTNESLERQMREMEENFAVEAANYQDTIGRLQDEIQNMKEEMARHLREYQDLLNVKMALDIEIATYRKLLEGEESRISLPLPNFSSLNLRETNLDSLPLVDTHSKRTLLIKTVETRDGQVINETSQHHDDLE

B1: FLAG-tagged PB4rev (antibody, V domains shown)
VH: QVQLQESGPGLVKPSETLSLTCTVSGGSISSYYWSWIRQPAGKGLEWIGRIYTSGSTNYNPSLKSRVTMSVDTSKNQFSLKLSSVTAADTAVYYCARESRGAVLTGDYYYYYYMDVWGKGTTVTVSS
VL: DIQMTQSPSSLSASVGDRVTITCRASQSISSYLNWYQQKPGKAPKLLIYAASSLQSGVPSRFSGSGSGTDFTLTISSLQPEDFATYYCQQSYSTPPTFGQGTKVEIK
notes: as the heavy chain of m8; as the light chain of m8; also called PB4rev (FLAG); source: heavy chain vector FJ475055 with FLAG co-expressed with the light chain plasmid, purified with protein A; not shown: FLAG, C-terminal, kept
B1: the binding result is listed as “binds”.
